Experimental data published in patent US20130244255A1, “ANTIBODIES DIRECTED TO GPNMB AND USES THEREOF” (priority 2006, published 2013).

Key:
GPNMB = target: T1, GPNMB (Homo sapiens, UniProt Q14956); experiment: BiaCore 2000 analysis of hybridoma supernatants binding to GPNMB
T1 construct: we cloned the human CG56972 extracellular domain (ECD; aa 23-480); made in house; host or cells: HEK 293 cells
T1 sequence (Q14956 23-492): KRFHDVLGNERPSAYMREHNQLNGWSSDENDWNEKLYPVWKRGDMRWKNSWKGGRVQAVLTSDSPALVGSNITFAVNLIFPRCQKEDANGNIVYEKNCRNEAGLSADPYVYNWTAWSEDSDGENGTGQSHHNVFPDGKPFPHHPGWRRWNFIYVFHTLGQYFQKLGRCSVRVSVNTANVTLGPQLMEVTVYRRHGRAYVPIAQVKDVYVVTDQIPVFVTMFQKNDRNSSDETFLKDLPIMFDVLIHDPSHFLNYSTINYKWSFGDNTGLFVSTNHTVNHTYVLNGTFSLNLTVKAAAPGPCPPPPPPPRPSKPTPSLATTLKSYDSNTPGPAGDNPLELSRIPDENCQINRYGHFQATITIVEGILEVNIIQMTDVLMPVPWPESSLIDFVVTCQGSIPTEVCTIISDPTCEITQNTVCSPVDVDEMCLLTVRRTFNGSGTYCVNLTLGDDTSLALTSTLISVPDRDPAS
Experimental: Certain Hybridoma cell supernatants (29) were analyzed for binding to GPNMB by BiaCore® 2000 biosensor equipped with a research-grade CM5 sensor chip. A 1:25 dilution of cell supernatant was passed over a protein A surface for 5 min followed by washing the surface for 10 mins. Subsequently, GPNMB was injected for 90 sec. over the surface at a concentration of 880 nM followed by dissociation. Double-referenced binding data were obtained by subtracting the signal from a control flow cell and subtracting the baseline drift of a buffer injected just prior to the antigen injection. GPNMB binding data for each mAb was normalized for the amount of mAb captured on each surface. Normalized, drift corrected responses were also measured. The sensorgrams were fit to a simple 1:1 kinetic model.

CG56972-expressing cells = experiment: Internalization of cell surface bound antibodies (flow cytometry); type: cell-based, human; settings: following incubation with CG56972-expressing cells
Experimental: Internalization of cell surface bound antibodies was assessed by a modified flow cytometry procedure. […] After washing cells, incubation was shifted to 37° C. for 1 hr to allow internalization of bound antibodies. Cells that remained on ice (total surface bound) or that were incubated at 37° C. […] Labeled cells were analyzed by flow cytometry as described above. The percentage of antibody internalized was determined using the GMRs and the following formula:
Percent internalized=Total surface bound (4° C.)−Total surface bound (37° C.)/Total surface bound (4° C.)×100

SK-Mel-2 cells [1] = experiment: ADCC assay with human PBMC (DELFIA EuTDA cytotoxicity); type: cell-based; settings: 30 to 100 fold PBMC; 2, 5, 10 μg/200 μl mAb
Experimental: Human PBMC were isolated from whole blood using a Ficoll-Plaque. Briefly, in a 50 mL tube, 15 mL of PBS was added to 20 mL of whole blood which was underlayed with 10 mL Ficoll-Plaque and the tube was centrifuged at 2000 RPM. Mononuclear cells were collected from the interface and washed 3 times with PBS. The ADCC assay was carried out in a 96 well plate using a fluorescence assay for cytolysis from Perkin-Elmer (DELFIAEuTDA Cytotoxic assay). The procedure is based on loading target cells with a fluorescence enhancing ligand (BATDA, bis (acetoxymethyl) terpyridine—dicarboxylate). The hydrophic ligand penetrates the membrane quickly. Within the cell the esterbonds are hydrolyzed to form a hydrophilic ligand (TDA, terpyridine—dicarboxylic acid) which can no longer pass through the membrane. After cytolysis the ligand is released and introduced to the Europium solution. The europium and the ligand form a highly fluorescent and stable chelate (EuTDA). Fluorescence intensity are recorded using excitation and emission wavelengths as λex=340 nm and λem=613 nm, respectively.

[2] = system: Lymphoma or leukemia cell lines; experiment: Clonogenic assay (methylcellulose) with 1.15.1-AE, lymphoma and leukemia panel; type: cell-based, human
Experimental: Lymphoma or leukemia cell lines were mixed with methylcellulose base media (R&D Systems, USA) and in various concentrations of unconjugated and Auristatin E-conjugated 1.15.1 antibody before plating onto 6-well tissue culture plates (Becton Dickinson, Franklin Lakes, N.J., USA). […] Plates were incubated at 37° C. and examined daily. On days 14-18, colonies on the plates were counted.

[3] = Pharmacokinetics of CR011-vcMMAE after intravenous administration (sandwich ELISA of antibody in serum); type: in vivo, athymic mice; settings: for A (pre-exponential constant for alpha phase) / AUC (total area under the curve from 0 to infinity) / Alpha (exponential rate constant for alpha phase) / Alpha-Half Life / B (pre-exponential constant for beta phase) / Beta (exponential rate constant for beta phase) / Beta-Half Life / Cl (total or systemic clearance) / MRT (mean residence time) / Volume (volume of central compartment) / Vss (steady-state volume of distribution): athymic mice, i.v.
Experimental: The concentration-time pattern was bi-phasic. […] Nevertheless, the compound disappeared very slowly from the peripheral blood (T1/2β=10.3 days) with serum concentrations of […] and 10 μg/mL remaining in the blood for 6 weeks after dosing.

SK-Mel-2 cells [4] = experiment: Clonogenic assay, SK-Mel-2 cells after GPNMB siRNA; type: cell-based, human
Experimental: Cells were plated in 96-well plates and allowed to recover overnight. […] The cells were then transferred into 6-well plates and allowed to form colonies. Colonies were stained with Giemsa stain (Sigma) and counted. The surviving cell fractions were calculated based upon the ratio of the treated sample and the untreated control. The results were expressed as a percentage of control using GraphPad Prism Version 4 software.
The amount of GPNMB expression was reduced for at least 7 days after transfection.

[5] = mAb captured on protein A, GPNMB at 880 nM, 1:1 kinetic model

In the case of “CR011: fully human monoclonal antibody that specifically binds to GPNMB; VH SEQ ID NO: 20, VL SEQ ID NO: 29”, the “binding to GPNMB (in words)” value (GPNMB; BiaCore, 1:25 dilution of cell supernatant) is reported as “strong binding”, the Kd (GPNMB; [5]) is reported as 52 nM and the “ka” value (GPNMB; [5]) is reported as 16524 M⁻¹ s⁻¹. The “kd” value (GPNMB; [5]) was 0.000855 s⁻¹, the “internalization (in words)” value (CG56972-expressing cells) was “internalized” and the “cytolysis of SK-MEL-2 cells (ADCC)” value (SK-Mel-2 cells [1]) was “did not show any cytolysis”. The “effect on growth of all antigen positive hematopoietic cell lines (in words)” value [2] was “no effect on growth”.
For “CR011-vcMMAE: CR011 conjugated to monomethyl auristatin E through a protease cleavable valine-citrulline linker; approx. 4 drugs per antibody”, the T1/2β ([3]; 1 or 10 mg/kg intravenously) was 10.3 days, the “A (pre-exponential constant for alpha phase)” value ([3]; 1 mg/kg) was 8.97 µg/mL and the “AUC (total area under the curve from 0 to infinity)” value ([3]; 1 mg/kg) was 3712 µg·h/mL. For the same substance, the “Alpha (exponential rate constant for alpha phase)” value ([3]; 1 mg/kg) was 0.179 h⁻¹, the “Alpha-Half Life” value ([3]; 1 mg/kg) was 0.162 days and the “B (pre-exponential constant for beta phase)” value ([3]; 1 mg/kg) was 9.82 µg/mL. For the same substance, the “Beta (exponential rate constant for beta phase)” value ([3]; 1 mg/kg) was 0.00269 h⁻¹, the “Beta-Half Life” value ([3]; 1 mg/kg) was 10.8 days and the “Cl (total or systemic clearance)” value ([3]; 1 mg/kg) was 6.46 mL/day/kg. The “MRT (mean residence time)” value ([3]; 1 mg/kg) was 15.3 days, the “Volume (volume of central compartment)” value ([3]; 1 mg/kg) was 0.0532 L/kg and the “Vss (steady-state volume of distribution)” value ([3]; 1 mg/kg) was 0.099 L/kg. The “A (pre-exponential constant for alpha phase)” value ([3]; 10 mg/kg) was 74.6 µg/mL, the “AUC (total area under the curve from 0 to infinity)” value ([3]; 10 mg/kg) was 41210 µg·h/mL and the “Alpha (exponential rate constant for alpha phase)” value ([3]; 10 mg/kg) was 0.0812 h⁻¹. The “Alpha-Half Life” value ([3]; 10 mg/kg) was 0.3555 days, the “B (pre-exponential constant for beta phase)” value ([3]; 10 mg/kg) was 113 µg/mL and the “Beta (exponential rate constant for beta phase)” value ([3]; 10 mg/kg) was 0.00281 h⁻¹. For the same substance, the “Beta-Half Life” value ([3]; 10 mg/kg) was 10.3 days, the “Cl (total or systemic clearance)” value ([3]; 10 mg/kg) was 5.83 mL/day/kg and the “MRT (mean residence time)” value ([3]; 10 mg/kg) was 14.5 days. The “Volume (volume of central compartment)” value ([3]; 10 mg/kg) was 0.0532 L/kg, the “Vss (steady-state volume of distribution)” value ([3]; 10 mg/kg) was 0.0845 L/kg and the “volume of distribution at steady state (Vss)” value ([3]; in words) was “very low”. For the same substance, the “sensitivity of SK-Mel-2 cells to growth-inhibitory activity following siRNA-mediated GPNMB knockdown” value (SK-Mel-2 cells [4]) was “less sensitive”.
